Assays:
ADI-70330 = target: T1, ADI-70330; experiment: SPR Carterra avidity, yeast anti-ID
T1 construct: anti-CD3 antibody made in CHO cells, captured by anti-human Fc
Method: (§1) Kinetic analysis was conducted at 25° C. in an HBSTE running buffer system (Carterra Cat #3630) using a Carterra LSA (Carterra USA, Salt Lake City, UT). The sample compartment was maintained at 20° C. for the duration of each experiment.
(§2) For antibody capture experiments, a goat anti-human Fc antibody (Jackson ImmunoResearch) was covalently coupled to an HC30M sensor chip surface via standard amine coupling (1:1 EDC:NHS) and then blocked with ethanolamine (1.0 M, pH 8.5). Covalent coupling steps were performed in 25 mM MES buffer (Carterra, Cat #3625) plus 0.05% Tween20. The anti-CD3 antibodies (100 nM in running buffer) were flowed over discrete regions of interest on the chip surface for 5 minutes. […] Dissociation of the anti-idiotype antibodies was monitored for 300s. Several blank buffer samples were injected over the entire chip surface at the start of each non-regenerative kinetic cycle. The preceding blank buffer injection was used for blank surface subtraction. At the end of each non-regenerative kinetic cycle, all surfaces were regenerated via two 30s injections of 10 mM glycine, pH 1.7.
(§3) For data processing and fitting, sensorgrams were double reference subtracted with a baseline drift correction of 4 RU. Sensorgrams were y-aligned and baseline corrected, filtered and cropped to include only the association and dissociation steps. Data was fitted to a 1:1 binding model using Carterra Kinetics Data Analysis software version 1.7.1.3055.

ADI-67450 = target: T2, ADI-67450; experiment: SPR Carterra avidity, yeast anti-ID
T2 construct: anti-CD3 antibody made in CHO cells, captured by anti-human Fc
Method: as §1, §2, §3

ADI-67445 = target: T3, ADI-67445; experiment: SPR Carterra avidity, yeast anti-ID
T3 construct: anti-CD3 antibody made in CHO cells, captured by anti-human Fc
Method: as §1, §2, §3

ADI-76362 = target: T4, ADI-76362; experiment: SPR Carterra avidity, yeast anti-ID
T4 construct: anti-CD3 antibody made in CHO cells, captured by anti-human Fc
Method: as §1, §2, §3

ADI-26909 = target: T5, ADI-26909; experiment: SPR Carterra avidity, yeast anti-ID
T5 construct: anti-CD3 antibody made in CHO cells, captured by anti-human Fc
Method: as §1, §2, §3

ADI-70327 = target: T6, ADI-70327; experiment: SPR Carterra avidity, yeast anti-ID
T6 construct: anti-CD3 antibody made in CHO cells, captured by anti-human Fc
Method: as §1, §2, §3

ADI-26919 = target: T7, ADI-26919; experiment: SPR Carterra avidity, yeast anti-ID
T7 construct: anti-CD3 antibody made in CHO cells, captured by anti-human Fc
Method: as §1, §2, §3

ADI-26913 IgG = target: T8, ADI-26913 IgG; experiment: SPR Carterra avidity, yeast anti-ID
T8 construct: anti-CD3 IgG
Method: as §1, §2, §3

ADI-74965 = target: T9, ADI-74965; experiment: SPR Carterra avidity, yeast anti-ID
T9 construct: pH-dependent anti-CD3 antibody made in CHO cells
Method: as §1, §2, §3

ADI-74967 = target: T10, ADI-74967; experiment: SPR Carterra avidity, yeast anti-ID
T10 construct: pH-dependent anti-CD3 antibody made in CHO cells
Method: as §1, §2, §3

ADI-26943 = target: T11, ADI-26943; experiment: SPR Carterra avidity, yeast anti-ID
T11 construct: anti-CD3 antibody made in CHO cells, captured by anti-human Fc
Method: as §1, §2, §3

ADI-74968 = target: T12, ADI-74968; experiment: SPR Carterra avidity, yeast anti-ID
T12 construct: pH-dependent anti-CD3 antibody made in CHO cells
Method: as §1, §2, §3

ADI-26916 IgG = target: T13, ADI-26916 IgG; experiment: SPR Carterra avidity, yeast anti-ID
T13 construct: anti-CD3 IgG
Method: as §1, §2, §3

ADI-26921 IgG = target: T14, ADI-26921 IgG; experiment: SPR Carterra avidity, yeast anti-ID
T14 construct: anti-CD3 IgG
Method: as §1, §2, §3

ADI-48587 = target: T15, ADI-48587; experiment: SPR Carterra avidity, yeast anti-ID
T15 construct: pH-dependent anti-CD3 antibody made in CHO cells
Method: as §1, §2, §3

ADI-48576 = target: T16, ADI-48576; experiment: SPR Carterra avidity, yeast anti-ID
T16 construct: pH-dependent anti-CD3 antibody made in CHO cells
Method: as §1, §2, §3

ADI-70326 = target: T17, ADI-70326; experiment: SPR Carterra avidity, yeast anti-ID
T17 construct: anti-CD3 antibody made in CHO cells, captured by anti-human Fc
Method: as §1, §2, §3

ADI-76357 = target: T18, ADI-76357; experiment: SPR Carterra avidity, yeast anti-ID
T18 construct: anti-CD3 antibody made in CHO cells, captured by anti-human Fc
Method: as §1, §2, §3

ADI-48592 = target: T19, ADI-48592; experiment: SPR Carterra avidity, yeast anti-ID
T19 construct: pH-dependent anti-CD3 antibody made in CHO cells
Method: as §1, §2, §3

ADI-74966 = target: T20, ADI-74966; experiment: SPR Carterra avidity, yeast anti-ID
T20 construct: pH-dependent anti-CD3 antibody made in CHO cells
Method: as §1, §2, §3

ADI-26906 IgG = target: T21, ADI-26906 IgG; experiment: SPR Carterra avidity, yeast anti-ID
T21 construct: anti-CD3 IgG
Method: as §1, §2, §3

ADI-76358 = target: T22, ADI-76358; experiment: SPR Carterra avidity, yeast anti-ID
T22 construct: anti-CD3 antibody made in CHO cells, captured by anti-human Fc
Method: as §1, §2, §3

ADI-76360 = target: T23, ADI-76360; experiment: SPR Carterra avidity, yeast anti-ID
T23 construct: anti-CD3 antibody made in CHO cells, captured by anti-human Fc
Method: as §1, §2, §3

ADI-48650 = target: T24, ADI-48650; experiment: SPR Carterra avidity, yeast anti-ID
T24 construct: pH-dependent anti-CD3 antibody made in CHO cells
Method: as §1, §2, §3

CTL-62223 = target: T25, CTL-62223; experiment: SPR Carterra avidity, yeast anti-ID
T25 construct: also called mosunetuzumab
Method: as §1, §2, §3

ADI-50024 = target: T26, ADI-50024; experiment: SPR Carterra avidity, yeast anti-ID
T26 construct: anti-CD3 antibody made in CHO cells, captured by anti-human Fc
Method: as §1, §2, §3

ADI-76361 = target: T27, ADI-76361; experiment: SPR Carterra avidity, yeast anti-ID
T27 construct: anti-CD3 antibody made in CHO cells, captured by anti-human Fc
Method: as §1, §2, §3

ADI-76359 = target: T28, ADI-76359; experiment: SPR Carterra avidity, yeast anti-ID
T28 construct: anti-CD3 antibody made in CHO cells, captured by anti-human Fc
Method: as §1, §2, §3

CTL-62240 = target: T29, CTL-62240; experiment: SPR Carterra, yeast anti-ID
T29 construct: also called ONO-4685
Method: as §1, §2, §3

CTL-62227 = target: T30, CTL-62227; experiment: SPR Carterra, yeast anti-ID
T30 construct: also called odronextamab
Method: as §1, §2, §3

CTL-62228 = target: T31, CTL-62228; experiment: SPR Carterra, yeast anti-ID
T31 construct: also called glofitamab
Method: as §1, §2, §3

ADI-26920 IgG = target: T32, ADI-26920 IgG; experiment: SPR Carterra avidity, yeast anti-ID, *koff limit
T32 construct: anti-CD3 IgG
Method: as §1, §2, §3

ADI-26924 = target: T33, ADI-26924; experiment: SPR Carterra avidity, yeast anti-ID, *koff limit
T33 construct: anti-CD3 antibody made in CHO cells, captured by anti-human Fc
Method: as §1, §2, §3

ADI-67447 = target: T34, ADI-67447; experiment: SPR Carterra avidity, yeast anti-ID, *koff limit
T34 construct: anti-CD3 antibody made in CHO cells, captured by anti-human Fc
Method: as §1, §2, §3

T5 sequence (VH, as listed by the source limits assumed, chain 1 of 2): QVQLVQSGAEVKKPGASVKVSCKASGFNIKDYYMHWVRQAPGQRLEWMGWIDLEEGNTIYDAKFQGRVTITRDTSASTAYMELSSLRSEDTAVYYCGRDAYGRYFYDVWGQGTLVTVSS
T5 sequence (VL, as listed by the source limits assumed, chain 2 of 2): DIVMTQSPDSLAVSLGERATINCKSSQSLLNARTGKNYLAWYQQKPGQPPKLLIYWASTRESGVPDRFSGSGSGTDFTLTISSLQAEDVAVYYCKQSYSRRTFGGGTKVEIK
T10 sequence (VH, as listed by the source, chain 1 of 2): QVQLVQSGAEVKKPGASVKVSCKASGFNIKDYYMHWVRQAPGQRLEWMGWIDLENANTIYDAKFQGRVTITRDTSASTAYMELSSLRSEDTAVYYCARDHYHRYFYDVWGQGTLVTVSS
T10 sequence (VL, as listed by the source, chain 2 of 2): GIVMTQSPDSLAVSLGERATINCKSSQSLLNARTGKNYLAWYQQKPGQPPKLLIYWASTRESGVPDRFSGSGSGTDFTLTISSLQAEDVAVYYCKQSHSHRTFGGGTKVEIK
T15 sequence (VL, as listed by the source, chain 2 of 2): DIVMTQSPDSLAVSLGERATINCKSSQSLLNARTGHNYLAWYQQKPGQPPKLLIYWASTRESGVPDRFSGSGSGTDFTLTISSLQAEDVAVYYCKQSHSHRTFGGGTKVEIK
T20 sequence (VL, as listed by the source, chain 2 of 2): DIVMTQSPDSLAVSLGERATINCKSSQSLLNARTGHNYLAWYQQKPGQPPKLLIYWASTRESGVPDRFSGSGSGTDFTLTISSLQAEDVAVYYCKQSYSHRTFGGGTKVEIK
T3 sequence (VH, as listed by the source limits assumed, chain 1 of 2): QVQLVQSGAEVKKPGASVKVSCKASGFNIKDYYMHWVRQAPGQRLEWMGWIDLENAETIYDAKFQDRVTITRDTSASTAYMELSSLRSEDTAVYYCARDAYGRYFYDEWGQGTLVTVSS
T13 sequence (VH, as listed by the source, chain 1 of 2): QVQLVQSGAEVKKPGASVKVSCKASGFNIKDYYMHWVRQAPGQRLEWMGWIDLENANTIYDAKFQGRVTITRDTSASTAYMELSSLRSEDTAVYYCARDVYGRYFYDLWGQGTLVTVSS
T16 sequence (VH, as listed by the source, chain 1 of 2): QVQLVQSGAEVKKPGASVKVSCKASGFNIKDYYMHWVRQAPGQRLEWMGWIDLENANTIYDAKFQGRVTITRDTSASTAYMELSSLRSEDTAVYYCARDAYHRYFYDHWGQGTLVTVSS
T16 sequence (VL, as listed by the source, chain 2 of 2): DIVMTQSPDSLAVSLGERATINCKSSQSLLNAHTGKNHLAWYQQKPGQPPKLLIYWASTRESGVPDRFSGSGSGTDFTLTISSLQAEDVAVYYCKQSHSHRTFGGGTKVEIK
T22 sequence (VH, as listed by the source, chain 1 of 2): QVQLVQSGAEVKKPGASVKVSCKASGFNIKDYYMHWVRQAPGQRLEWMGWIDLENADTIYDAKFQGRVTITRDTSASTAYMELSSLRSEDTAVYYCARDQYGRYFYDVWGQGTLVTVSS
T32 sequence (VH, as listed by the source limits assumed, chain 1 of 2): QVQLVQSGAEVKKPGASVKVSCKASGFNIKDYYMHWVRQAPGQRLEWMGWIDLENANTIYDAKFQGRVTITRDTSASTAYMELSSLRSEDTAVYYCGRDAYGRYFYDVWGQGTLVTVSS
T32 sequence (VL, as listed by the source limits assumed, chain 2 of 2): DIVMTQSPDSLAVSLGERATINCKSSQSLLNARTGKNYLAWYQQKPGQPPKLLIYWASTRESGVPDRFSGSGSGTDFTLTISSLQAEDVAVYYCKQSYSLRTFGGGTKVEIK
T9 sequence (VH, as listed by the source, chain 1 of 2): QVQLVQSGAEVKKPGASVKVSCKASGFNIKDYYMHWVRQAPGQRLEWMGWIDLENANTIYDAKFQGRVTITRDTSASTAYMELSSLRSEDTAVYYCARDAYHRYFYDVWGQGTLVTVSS
T11 sequence (VH, as listed by the source, chain 1 of 2): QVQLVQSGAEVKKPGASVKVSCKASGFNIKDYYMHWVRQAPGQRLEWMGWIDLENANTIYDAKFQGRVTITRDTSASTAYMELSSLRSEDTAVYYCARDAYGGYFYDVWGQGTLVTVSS
T11 sequence (VL, as listed by the source, chain 2 of 2): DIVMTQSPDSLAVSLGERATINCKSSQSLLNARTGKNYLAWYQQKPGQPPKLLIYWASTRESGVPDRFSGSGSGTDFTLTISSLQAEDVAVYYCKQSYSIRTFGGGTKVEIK
T14 sequence (VH, as listed by the source limits assumed, chain 1 of 2): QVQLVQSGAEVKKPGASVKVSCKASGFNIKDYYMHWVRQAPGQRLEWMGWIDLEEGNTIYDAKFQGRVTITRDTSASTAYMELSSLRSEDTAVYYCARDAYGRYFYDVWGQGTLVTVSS
T33 sequence (VH, as listed by the source, chain 1 of 2): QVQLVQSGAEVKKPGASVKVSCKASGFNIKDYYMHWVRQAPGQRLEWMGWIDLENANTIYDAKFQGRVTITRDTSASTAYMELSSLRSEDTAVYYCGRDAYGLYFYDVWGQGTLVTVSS
T27 sequence (VH, as listed by the source, chain 1 of 2): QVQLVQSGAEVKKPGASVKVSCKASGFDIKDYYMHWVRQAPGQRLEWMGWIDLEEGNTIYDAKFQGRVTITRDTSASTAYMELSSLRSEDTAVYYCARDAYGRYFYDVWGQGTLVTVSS
T17 sequence (VH, as listed by the source limits assumed, chain 1 of 2): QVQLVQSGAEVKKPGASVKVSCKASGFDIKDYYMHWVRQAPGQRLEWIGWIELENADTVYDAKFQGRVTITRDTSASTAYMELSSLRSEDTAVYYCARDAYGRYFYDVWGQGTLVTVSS
T17 sequence (VL, as listed by the source limits assumed, chain 2 of 2): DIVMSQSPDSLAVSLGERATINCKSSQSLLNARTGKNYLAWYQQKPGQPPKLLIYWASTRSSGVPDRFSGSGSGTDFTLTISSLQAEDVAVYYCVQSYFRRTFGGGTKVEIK
T29 sequence (VH, as listed by the source, chain 1 of 2): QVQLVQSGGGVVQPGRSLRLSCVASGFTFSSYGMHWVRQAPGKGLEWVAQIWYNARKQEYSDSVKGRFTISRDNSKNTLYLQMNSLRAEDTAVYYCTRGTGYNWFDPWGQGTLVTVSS
T29 sequence (VL, as listed by the source, chain 2 of 2): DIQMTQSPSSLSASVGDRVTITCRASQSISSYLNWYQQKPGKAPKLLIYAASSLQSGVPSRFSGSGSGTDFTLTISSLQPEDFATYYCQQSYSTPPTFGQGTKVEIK
T23 sequence (VH, as listed by the source, chain 1 of 2): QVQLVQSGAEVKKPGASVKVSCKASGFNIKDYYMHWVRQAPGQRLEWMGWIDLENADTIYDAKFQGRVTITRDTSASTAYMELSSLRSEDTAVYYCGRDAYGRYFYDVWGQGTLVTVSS

B1: ADI-34146 (antibody, V domains shown)
VH: EVQLLESGGGLVQPGGSLRLSCAASGFTFSSYAMSWVRQAPGKGLEWVSTISGSGGSTYYADSVKGRFTISRDNSKNTLYLQMNSLRAEDTAVYYCARLGGRRGSGSSYYYYYGMDVWGQGTTVTVSS
VL: not shown
notes: anti-ID IgG
- Kd (ADI-70330): 1200 pM
- Kd (ADI-67450): 1800 pM
- Kd (ADI-67445): 930 pM
- Kd (ADI-76362): 1400 pM
- Kd (ADI-26909): 640 pM
- Kd (ADI-70327): 1700 pM
- Kd (ADI-26919): 350 pM
- Kd (ADI-26913 IgG): 550 pM
- Kd (ADI-74965): 750 pM
- Kd (ADI-74967): 500 pM
- Kd (ADI-26943): 870 pM
- Kd (ADI-74968): 410 pM
- Kd (ADI-26916 IgG): 1800 pM
- Kd (ADI-26921 IgG): 240 pM
- Kd (ADI-48587): 790 pM
- Kd (ADI-48576): 12000 pM
- Kd (ADI-70326): 3900 pM
- Kd (ADI-76357): 540 pM
- Kd (ADI-48592): 16000 pM
- Kd (ADI-74966): 860 pM
- Kd (ADI-26906 IgG): 630 pM
- Kd (ADI-76358): 2900 pM
- Kd (ADI-76360): 570 pM
- Kd (ADI-48650): 3300 pM
- Kd (CTL-62223): 4500 pM
- Kd (ADI-50024): 1100 pM
- Kd (ADI-76361): 240 pM
- Kd (ADI-76359): 390 pM
- binding result (CTL-62240): no binding (tested: up to 200 nM)
- binding result (CTL-62227): no binding (tested: up to 200 nM)
- binding result (CTL-62228): no binding (tested: up to 200 nM)
- Kd (ADI-26920 IgG): 290 pM
- Kd (ADI-26924): 250 pM
- Kd (ADI-67447): 350 pM
